Results on 2 molecules are retold here after patent US20240124528A1 (ACADEMIA SINICA, published 2024).

The target of one experiment is T1, Flag-MLK4 (human, UniProt Q5TCX8 1-1036, limits assumed).
T1 construct: also called Flag-tagged WT MLK4; not shown: Flag tag
Kind of experiment: reciprocal co-IP, 293T cells, rIL-17B (FIG. 5C).

The target of experiment [1] is T2, mixed-lineage kinase 4 (MLK4), endogenous (human, UniProt Q5TCX8 1-1036, limits assumed).
T2 construct: also called KIAA1804; MAP3K21
T2 sequence (Q5TCX8 whole entry): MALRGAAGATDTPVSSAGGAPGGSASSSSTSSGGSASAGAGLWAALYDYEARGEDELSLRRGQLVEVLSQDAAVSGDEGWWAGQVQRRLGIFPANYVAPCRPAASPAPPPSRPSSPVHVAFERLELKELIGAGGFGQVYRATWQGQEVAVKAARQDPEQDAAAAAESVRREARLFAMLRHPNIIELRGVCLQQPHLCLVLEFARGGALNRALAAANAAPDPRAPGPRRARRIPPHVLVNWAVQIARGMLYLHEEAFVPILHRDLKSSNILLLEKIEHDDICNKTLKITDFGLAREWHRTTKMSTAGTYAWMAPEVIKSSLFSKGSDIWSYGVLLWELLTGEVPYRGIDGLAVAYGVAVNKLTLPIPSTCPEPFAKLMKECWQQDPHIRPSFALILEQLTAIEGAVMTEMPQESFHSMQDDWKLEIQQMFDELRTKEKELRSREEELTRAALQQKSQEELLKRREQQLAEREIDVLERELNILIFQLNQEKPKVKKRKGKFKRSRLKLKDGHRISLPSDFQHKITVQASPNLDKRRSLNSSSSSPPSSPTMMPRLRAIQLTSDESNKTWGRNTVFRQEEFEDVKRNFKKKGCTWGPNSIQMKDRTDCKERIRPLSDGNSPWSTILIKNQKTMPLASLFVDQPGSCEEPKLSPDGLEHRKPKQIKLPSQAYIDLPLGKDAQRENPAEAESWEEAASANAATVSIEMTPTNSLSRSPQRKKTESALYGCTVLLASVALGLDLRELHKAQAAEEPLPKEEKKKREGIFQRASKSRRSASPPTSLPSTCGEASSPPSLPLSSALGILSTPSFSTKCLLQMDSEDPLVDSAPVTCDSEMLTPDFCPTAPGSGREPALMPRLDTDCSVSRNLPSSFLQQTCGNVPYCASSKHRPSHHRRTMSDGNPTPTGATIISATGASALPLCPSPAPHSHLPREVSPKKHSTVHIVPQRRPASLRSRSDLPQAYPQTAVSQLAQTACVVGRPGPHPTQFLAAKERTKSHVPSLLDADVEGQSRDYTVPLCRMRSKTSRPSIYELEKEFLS
Kind of experiment: co-IP with anti-HA beads, blot with anti-MLK4, rIL-17B (FIG. 5D).

In experiment [2] the target is T3, IL-17RB-HA (C-terminally HA-tagged full-length IL-17RB, wild type) (human, UniProt Q9NRM6 18-502).
T3 construct: Full-length IL-17RB subcloned into pcDNA3.1, expressed in 293T, IL-17RB-KO BxPC3 or SU.86.86 cells; also called HA-IL-17RB; HA-tagged WT IL-17RB; not shown: HA tag, C-terminal
T3 sequence: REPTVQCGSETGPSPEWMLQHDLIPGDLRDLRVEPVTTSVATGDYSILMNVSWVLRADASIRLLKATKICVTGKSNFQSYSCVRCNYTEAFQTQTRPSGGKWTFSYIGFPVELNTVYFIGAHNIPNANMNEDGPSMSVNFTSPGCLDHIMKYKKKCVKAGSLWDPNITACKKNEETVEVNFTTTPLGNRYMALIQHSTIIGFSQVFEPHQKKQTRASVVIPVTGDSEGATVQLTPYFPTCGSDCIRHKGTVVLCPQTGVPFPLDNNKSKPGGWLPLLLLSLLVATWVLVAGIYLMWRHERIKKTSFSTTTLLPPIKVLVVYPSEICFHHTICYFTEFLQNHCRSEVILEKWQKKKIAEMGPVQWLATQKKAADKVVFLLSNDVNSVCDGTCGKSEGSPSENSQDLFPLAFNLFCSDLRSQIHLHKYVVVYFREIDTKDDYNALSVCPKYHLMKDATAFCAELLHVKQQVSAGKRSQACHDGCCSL
Kind of experiment: co-IP with anti-HA beads, IL-17RB-KO BxPC3 cells, 50 ng/ml rIL-17B (FIG. 14B).

Another experiment has as its target T4, TAK1, endogenous (human, UniProt O43318 1-606, limits assumed).
T4 sequence (looked up): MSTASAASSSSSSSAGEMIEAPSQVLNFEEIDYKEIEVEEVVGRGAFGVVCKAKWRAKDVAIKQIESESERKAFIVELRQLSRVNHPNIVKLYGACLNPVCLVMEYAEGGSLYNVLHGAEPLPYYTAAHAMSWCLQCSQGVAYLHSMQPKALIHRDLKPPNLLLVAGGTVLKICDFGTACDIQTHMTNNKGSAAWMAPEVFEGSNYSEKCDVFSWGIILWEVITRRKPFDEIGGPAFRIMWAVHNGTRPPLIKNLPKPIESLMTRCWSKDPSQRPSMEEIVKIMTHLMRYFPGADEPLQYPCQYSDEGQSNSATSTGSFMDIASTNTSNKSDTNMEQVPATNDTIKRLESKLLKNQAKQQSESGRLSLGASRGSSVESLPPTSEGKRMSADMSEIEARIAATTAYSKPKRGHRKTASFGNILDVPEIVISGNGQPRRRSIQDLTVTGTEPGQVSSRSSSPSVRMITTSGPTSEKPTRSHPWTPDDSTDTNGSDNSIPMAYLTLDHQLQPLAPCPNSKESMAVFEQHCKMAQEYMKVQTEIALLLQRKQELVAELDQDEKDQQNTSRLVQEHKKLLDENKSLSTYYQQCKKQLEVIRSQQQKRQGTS
Kind of experiment: co-IP with anti-Flag agarose, IL-17RB-KO BxPC3 cells, rIL-17B (FIG. 6G).

A further experiment concerns the target T5, ACT1, endogenous (human, UniProt O43734 1-574, limits assumed).
T5 sequence (looked up): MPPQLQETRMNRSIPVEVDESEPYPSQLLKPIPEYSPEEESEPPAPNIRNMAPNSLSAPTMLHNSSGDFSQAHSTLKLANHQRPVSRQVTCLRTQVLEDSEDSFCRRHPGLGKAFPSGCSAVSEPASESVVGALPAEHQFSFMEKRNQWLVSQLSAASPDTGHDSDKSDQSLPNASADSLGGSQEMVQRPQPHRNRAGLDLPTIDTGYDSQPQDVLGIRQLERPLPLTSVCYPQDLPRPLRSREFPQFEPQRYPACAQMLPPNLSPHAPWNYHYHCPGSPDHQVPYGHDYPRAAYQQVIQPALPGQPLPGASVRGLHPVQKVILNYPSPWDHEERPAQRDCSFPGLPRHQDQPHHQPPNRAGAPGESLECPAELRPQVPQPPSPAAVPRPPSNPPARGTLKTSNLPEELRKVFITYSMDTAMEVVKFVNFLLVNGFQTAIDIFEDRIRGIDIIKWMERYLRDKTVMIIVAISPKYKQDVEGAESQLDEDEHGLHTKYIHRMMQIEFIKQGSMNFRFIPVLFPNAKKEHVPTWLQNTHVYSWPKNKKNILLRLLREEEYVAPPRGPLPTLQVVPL
Described as above.

The next experiment deals with T6, TRAF6, endogenous (human, UniProt Q9Y4K3 1-522).
T6 sequence (looked up): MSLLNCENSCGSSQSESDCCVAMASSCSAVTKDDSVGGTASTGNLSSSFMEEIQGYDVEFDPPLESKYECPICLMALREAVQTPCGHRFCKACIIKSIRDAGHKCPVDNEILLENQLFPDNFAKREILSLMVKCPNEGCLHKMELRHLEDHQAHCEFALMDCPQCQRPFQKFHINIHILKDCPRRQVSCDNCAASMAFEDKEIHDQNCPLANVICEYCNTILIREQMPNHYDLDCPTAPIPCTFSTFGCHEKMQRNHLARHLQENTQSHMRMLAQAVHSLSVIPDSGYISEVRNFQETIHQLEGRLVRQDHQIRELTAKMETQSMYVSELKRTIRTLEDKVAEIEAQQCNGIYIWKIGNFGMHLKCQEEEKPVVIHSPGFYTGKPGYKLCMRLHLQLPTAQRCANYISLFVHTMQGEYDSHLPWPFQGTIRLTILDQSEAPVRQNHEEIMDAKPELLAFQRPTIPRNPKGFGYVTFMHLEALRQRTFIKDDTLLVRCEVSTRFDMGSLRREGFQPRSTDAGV
The description is as above.

T1 sequence (Q5TCX8 whole entry): as the sequence (Q5TCX8 whole entry) above

B1: IL-17RB ΔV403˜S416 (Del-3), HA-tagged (receptor)
chain: REPTVQCGSETGPSPEWMLQHDLIPGDLRDLRVEPVTTSVATGDYSILMNVSWVLRADASIRLLKATKICVTGKSNFQSYSCVRCNYTEAFQTQTRPSGGKWTFSYIGFPVELNTVYFIGAHNIPNANMNEDGPSMSVNFTSPGCLDHIMKYKKKCVKAGSLWDPNITACKKNEETVEVNFTTTPLGNRYMALIQHSTIIGFSQVFEPHQKKQTRASVVIPVTGDSEGATVQLTPYFPTCGSDCIRHKGTVVLCPQTGVPFPLDNNKSKPGGWLPLLLLSLLVATWVLVAGIYLMWRHERIKKTSFSTTTLLPPIKVLVVYPSEICFHHTICYFTEFLQNHCRSEVILEKWQKKKIAEMGPVQWLATQKKAADKVVFLLSNDVNSENSQDLFPLAFNLFCSDLRSQIHLHKYVVVYFREIDTKDDYNALSVCPKYHLMKDATAFCAELLHVKQQVSAGKRSQACHDGCCSL
notes: Deletion of the flexible loop; also called Del-3 mutant; not shown: HA tag
For B1, the binding result (with Flag-MLK4; in experiment [1]) was “no binding” throughout.

B2: IL-17RB K470R, Flag-tagged (receptor)
chain: REPTVQCGSETGPSPEWMLQHDLIPGDLRDLRVEPVTTSVATGDYSILMNVSWVLRADASIRLLKATKICVTGKSNFQSYSCVRCNYTEAFQTQTRPSGGKWTFSYIGFPVELNTVYFIGAHNIPNANMNEDGPSMSVNFTSPGCLDHIMKYKKKCVKAGSLWDPNITACKKNEETVEVNFTTTPLGNRYMALIQHSTIIGFSQVFEPHQKKQTRASVVIPVTGDSEGATVQLTPYFPTCGSDCIRHKGTVVLCPQTGVPFPLDNNKSKPGGWLPLLLLSLLVATWVLVAGIYLMWRHERIKKTSFSTTTLLPPIKVLVVYPSEICFHHTICYFTEFLQNHCRSEVILEKWQKKKIAEMGPVQWLATQKKAADKVVFLLSNDVNSVCDGTCGKSEGSPSENSQDLFPLAFNLFCSDLRSQIHLHKYVVVYFREIDTKDDYNALSVCPKYHLMRDATAFCAELLHVKQQVSAGKRSQACHDGCCSL
notes: also called K470R-mutant IL-17RB; not shown: Flag tag
For the molecule B2, the binding result is reported as “binds” in experiment [2]; “no binding” with TAK1, endogenous; “no binding” with ACT1, endogenous; “no binding” with TRAF6, endogenous.
